Variants at the floor of the assay were thinned out.
Key:
biotinyl-Met-oxazolone = assay: self-aminoacylation, catalytic enhancement (BMO) (fold over background); higher = more active; k-Seq, kA / k0A0; sequences stand for … in GGGAAUGGAUCCACAUCUACGAAUUC…UUCACUGCAGACUUGACGAAGCUG
Outline: (§1)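 Mutagenized RNA pools with a 21-nt variable region (0.43 μM) were reacted with each biotinyl-aminoacyl-oxazolone at 2–1250 μM for 90 minutes at room temperature, in 50 μL HEPES/NaCl/KCl/MgCl2/CaCl2 buffer containing 5% acetonitrile at pH 6.9–7.0. RNA captured on streptavidin was quantified by triplicate qPCR and by Illumina sequencing. The fraction reacted for each sequence was fit to a pseudo-first-order model with bootstrapping, and catalytic enhancement is the median kA divided by the uncatalyzed rate, taken as the low-activity peak of a bimodal Gaussian fit.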

biotinyl-Phe-oxazolone = assay: self-aminoacylation, catalytic enhancement (BFO) (fold over background); higher = more active; k-Seq, kA / k0A0; sequences stand for … in GGGAAUGGAUCCACAUCUACGAAUUC…UUCACUGCAGACUUGACGAAGCUG
Outline: as §1

biotinyl-Ile-oxazolone = assay: self-aminoacylation, catalytic enhancement (BIO) (fold over background); higher = more active; k-Seq, kA / k0A0; sequences stand for … in GGGAAUGGAUCCACAUCUACGAAUUC…UUCACUGCAGACUUGACGAAGCUG
Outline: as §1

biotinyl-Trp-oxazolone = assay: self-aminoacylation, catalytic enhancement (BWO) (fold over background); higher = more active; k-Seq, kA / k0A0; sequences stand for … in GGGAAUGGAUCCACAUCUACGAAUUC…UUCACUGCAGACUUGACGAAGCUG
Outline: as §1

biotinyl-Leu-oxazolone = assay: self-aminoacylation, catalytic enhancement (BLO) (fold over background); higher = more active; k-Seq, kA / k0A0; sequences stand for … in GGGAAUGGAUCCACAUCUACGAAUUC…UUCACUGCAGACUUGACGAAGCUG
Outline: as §1

biotinyl-Val-oxazolone = assay: self-aminoacylation, catalytic enhancement (BVO) (fold over background); higher = more active; k-Seq, kA / k0A0; sequences stand for … in GGGAAUGGAUCCACAUCUACGAAUUC…UUCACUGCAGACUUGACGAAGCUG
Outline: as §1

| Sequence | self-aminoacylation (biotinyl-Met-oxazolone) | self-aminoacylation (biotinyl-Phe-oxazolone) | self-aminoacylation (biotinyl-Ile-oxazolone) | self-aminoacylation (biotinyl-Trp-oxazolone) | self-aminoacylation (biotinyl-Leu-oxazolone) | self-aminoacylation (biotinyl-Val-oxazolone) |
| --- | --- | --- | --- | --- | --- | --- |
| AUUACCCUGGUCAUCGACUUA [Fam2.1 aminoacylation ribozyme variant] | 0.636 | 0.425 | 0.596 | 0.414 | 0.544 | 0.818 |
| AUUACCCUGGUCAUCGAGCGC [Fam2.1 aminoacylation ribozyme variant] | 2.53 | 1.86 | 2.09 | 1.16 | 2.33 | 2.29 |
| AUUACCCUGGUCAUCGAGCGU [Fam2.1 aminoacylation ribozyme variant] | 4.25 | 4.33 | 2.77 | 4.83 | 4.95 | 2.36 |
| AUUACCCUGGUCAUCGAGUGU [Fam2.1 aminoacylation ribozyme variant] | 108 | 785 | 31.7 | 104 | 105 | 37.4 |
| AUUACCCUGGUCAUCGAUUAA [Fam2.1 aminoacylation ribozyme variant] | 0.935 | 0.508 | 1.02 | 0.619 | 0.933 | 1.1 |
| AUUACCCUGGUCAUCGAUUGG [Fam2.1 aminoacylation ribozyme variant] | 0.715 | 0.798 | 0.665 | 1.3 | 0.713 | 0.856 |
| AUUACCCUGGUCAUCGCGUAA [Fam2.1 aminoacylation ribozyme variant] | 4.04 | 28.4 | 2.73 | 5.11 | 2.97 | 3.48 |
| AUUACCCUGGUCAUCGGAUGA [Fam2.1 aminoacylation ribozyme variant] | 1.16 | 0.931 | 1.4 | 1.62 | 1.65 | 1.36 |
| AUUACCCUGGUCAUCGGGCGA [Fam2.1 aminoacylation ribozyme variant] | 8.99 | 20.1 | 4.15 | 8.14 | 10 | 4.62 |
| AUUACCCUGGUCAUCGGGGGA [Fam2.1 aminoacylation ribozyme variant] | 7.12 | 44.2 | 4.75 | 10.7 | 9.21 | 5.36 |
| AUUACCCUGGUCAUCGUGUAA [Fam2.1 aminoacylation ribozyme variant] | 1.07 | 0.847 | 1.13 | 0.503 | 1.26 | 1.18 |
| AUUACCCUGGUCAUCGUGUGC [Fam2.1 aminoacylation ribozyme variant] | 0.938 | 1.25 | 0.992 | 0.349 | 1.12 | 0.881 |
| AUUACCCUGGUCAUCGUUUGA [Fam2.1 aminoacylation ribozyme variant] | 0.71 | 0.693 | 0.923 | 0.734 | 0.963 | 0.821 |
| AUUACCCUGGUCAUCUACUGA [Fam2.1 aminoacylation ribozyme variant] | 0.663 | 0.799 | 0.925 | 0.358 | 0.676 | 0.856 |
| AUUACCCUGGUCAUCUAGGGA [Fam2.1 aminoacylation ribozyme variant] | 1.17 | 1.72 | 1.36 | 0.956 | 1.47 | 1.32 |
| AUUACCCUGGUCAUCUAGUGG [Fam2.1 aminoacylation ribozyme variant] | 2.14 | 2.7 | 1.3 | 2.08 | 2.32 | 1.48 |
| AUUACCCUGGUCAUCUAUUGA [Fam2.1 aminoacylation ribozyme variant] | 0.879 | 0.868 | 1.08 | 0.789 | 0.839 | 1.11 |
| AUUACCCUGGUCAUGGAGCGA [Fam2.1 aminoacylation ribozyme variant] | 1.59 | 3.2 | 1.27 | 1.32 | 1.72 | 1.29 |
| AUUACCCUGGUCAUGGCGUGA [Fam2.1 aminoacylation ribozyme variant] | 16.2 | 125 | 7 | 19.4 | 17.4 | 10.3 |
| AUUACCCUGGUCAUUGUGUGA [Fam2.1 aminoacylation ribozyme variant] | 2.59 | 8.81 | 1.46 | 3.23 | 2.23 | 1.49 |
| AUUACCCUGGUCCUCCAGUGA [Fam2.1 aminoacylation ribozyme variant] | 7.44 | 49.6 | 4.44 | 9.12 | 8.6 | 3.79 |
| AUUACCCUGGUCCUUGAGUGA [Fam2.1 aminoacylation ribozyme variant] | 8.05 | 56.2 | 3.86 | 9.98 | 8.35 | 3.86 |
| AUUACCCUGGUCGUCGAGUGU [Fam2.1 aminoacylation ribozyme variant] | 1.39 | 2.78 | 1.07 | 1.15 | 1.08 | 1.2 |
| AUUACCCUGGUCUUCGAGCGA [Fam2.1 aminoacylation ribozyme variant] | 1.09 | 0.753 | 0.901 | 1.16 | 1.11 | 1.23 |
| AUUACCCUGGUCUUCGAGGGA [Fam2.1 aminoacylation ribozyme variant] | 1.15 | 0.74 | 1.5 | 1.31 | 1.54 | 1.35 |
| AUUACCCUGGUCUUCGAGUGU [Fam2.1 aminoacylation ribozyme variant] | 1.96 | 1.76 | 1.52 | 2.23 | 2.03 | 1.57 |

| Sequence | self-aminoacylation (biotinyl-Met-oxazolone) | self-aminoacylation (biotinyl-Phe-oxazolone) | self-aminoacylation (biotinyl-Ile-oxazolone) | self-aminoacylation (biotinyl-Trp-oxazolone) | self-aminoacylation (biotinyl-Leu-oxazolone) | self-aminoacylation (biotinyl-Val-oxazolone) |
| --- | --- | --- | --- | --- | --- | --- |
| AUUACCCUGGUCUUUGAGUGA [Fam2.1 aminoacylation ribozyme variant] | 7.29 | 41.8 | 4.05 | 9.67 | 8.33 | 4.17 |
| AUUACCCUGGUGACCGAGUGA [Fam2.1 aminoacylation ribozyme variant] | 9.44 | 66.1 | 4.29 | 12.5 | 11.1 | 4.93 |
| AUUACCCUGGUGAUCGAGCGA [Fam2.1 aminoacylation ribozyme variant] | 1.76 | 5 | 2.06 | 1.82 | 1.93 | 1.95 |
| AUUACCCUGGUGAUCGAGUAA [Fam2.1 aminoacylation ribozyme variant] | 1.54 | 0.541 | 1.24 | 2.15 | 1.21 | 1.23 |
| AUUACCCUGGUGAUCGGGUGA [Fam2.1 aminoacylation ribozyme variant] | 5.18 | 39.5 | 3.43 | 6.86 | 7.07 | 4.27 |
| AUUACCCUGGUGAUCUAGUGA [Fam2.1 aminoacylation ribozyme variant] | 7.61 | 45.1 | 3.11 | 8.61 | 6.59 | 3.29 |
| AUUACCCUGGUUAUCCAGUGA [Fam2.1 aminoacylation ribozyme variant] | 11.5 | 74.4 | 5.5 | 14.2 | 11.6 | 5.13 |
| AUUACCCUGGUUAUCGAAUGA [Fam2.1 aminoacylation ribozyme variant] | 0.971 | 0.877 | 0.965 | 0.677 | 0.866 | 0.846 |
| AUUACCCUGGUUAUGGAGUGA [Fam2.1 aminoacylation ribozyme variant] | 7.77 | 47.4 | 3.95 | 8.01 | 7.9 | 3.93 |
| AUUACCCUGGUUUUCGAGUGA [Fam2.1 aminoacylation ribozyme variant] | 8.29 | 45.7 | 3.74 | 10.9 | 9.42 | 4.43 |
| AUUACCCUGUUCAACGAGUGA [Fam2.1 aminoacylation ribozyme variant] | 11.2 | 57 | 5.25 | 13.4 | 11.8 | 5.18 |
| AUUACCCUGUUCAUCGAAUGA [Fam2.1 aminoacylation ribozyme variant] | 1.16 | 1.18 | 0.982 | 0.767 | 0.871 | 1.13 |
| AUUACCCUGUUCAUCGAGCGA [Fam2.1 aminoacylation ribozyme variant] | 1.35 | 1.13 | 1.2 | 1.08 | 1.36 | 1.33 |
| AUUACCCUGUUCAUCGAGUGG [Fam2.1 aminoacylation ribozyme variant] | 1.03 | 0.962 | 1.08 | 1.48 | 1.25 | 1.29 |
| AUUACCCUGUUCAUCUAGUGA [Fam2.1 aminoacylation ribozyme variant] | 16.4 | 86.2 | 6.08 | 17.3 | 14.8 | 7.03 |
| AUUACCCUGUUCCUCGAGUGA [Fam2.1 aminoacylation ribozyme variant] | 3.86 | 11.2 | 2.27 | 4.81 | 3.54 | 2.68 |
| AUUACCCUGUUUAUCGAGUGA [Fam2.1 aminoacylation ribozyme variant] | 12.6 | 62.5 | 5.5 | 15.7 | 12.3 | 6.02 |
| AUUACCCUUGUAAUCGAGUGA [Fam2.1 aminoacylation ribozyme variant] | 16.4 | 127 | 6.93 | 21.1 | 16.3 | 6.66 |
| AUUACCCUUGUCAGCGAGUGA [Fam2.1 aminoacylation ribozyme variant] | 5.08 | 28.6 | 2.94 | 6.54 | 6.14 | 3.3 |
| AUUACCCUUGUCAUCGAGGGA [Fam2.1 aminoacylation ribozyme variant] | 1.28 | 2.14 | 1.16 | 1.3 | 1.27 | 0.957 |
| AUUACCCUUGUCAUCGAGUGA [Fam2.1 aminoacylation ribozyme variant] | 5.94 | 21.8 | 3.19 | 7.65 | 5.88 | 3.54 |
| AUUACCCUUGUCAUCGGGUGA [Fam2.1 aminoacylation ribozyme variant] | 8.35 | 45.3 | 4.14 | 9.41 | 9.03 | 4.39 |
| AUUACCCUUGUCAUGGAGUGA [Fam2.1 aminoacylation ribozyme variant] | 4.62 | 22.1 | 2.87 | 5.67 | 5.03 | 2.76 |
| AUUACCCUUGUCCUCGAGUGA [Fam2.1 aminoacylation ribozyme variant] | 4.9 | 32.2 | 2.68 | 5.17 | 4.77 | 3.08 |
| AUUACCCUUGUCGUCGAGUGA [Fam2.1 aminoacylation ribozyme variant] | 1.06 | 2.62 | 1.13 | 0.966 | 1.05 | 1.11 |

Source: the supplement of paper PMC9233669
